Measurements taken from patent publication US20220411488A1 (APHARMA, published 2022).

Biological target: T1, human ITIH-1 antigen (inter-alpha trypsin inhibitor heavy chain 1) (human)
T1 construct: Produced in HEK293F cells and purified; used as the immunogen; also called SHAP
Experiment: biolayer interferometry, AR2G biosensor, antibody as ligand
Experimental: 5D6 and 9E1 were bound to ITIH1 with high affinity, as shown in the table below, and affinity was determined by AbClon Inc. using an AR2G (Bio-Sensor).

T1 sequence (chain, as listed by the source limits assumed): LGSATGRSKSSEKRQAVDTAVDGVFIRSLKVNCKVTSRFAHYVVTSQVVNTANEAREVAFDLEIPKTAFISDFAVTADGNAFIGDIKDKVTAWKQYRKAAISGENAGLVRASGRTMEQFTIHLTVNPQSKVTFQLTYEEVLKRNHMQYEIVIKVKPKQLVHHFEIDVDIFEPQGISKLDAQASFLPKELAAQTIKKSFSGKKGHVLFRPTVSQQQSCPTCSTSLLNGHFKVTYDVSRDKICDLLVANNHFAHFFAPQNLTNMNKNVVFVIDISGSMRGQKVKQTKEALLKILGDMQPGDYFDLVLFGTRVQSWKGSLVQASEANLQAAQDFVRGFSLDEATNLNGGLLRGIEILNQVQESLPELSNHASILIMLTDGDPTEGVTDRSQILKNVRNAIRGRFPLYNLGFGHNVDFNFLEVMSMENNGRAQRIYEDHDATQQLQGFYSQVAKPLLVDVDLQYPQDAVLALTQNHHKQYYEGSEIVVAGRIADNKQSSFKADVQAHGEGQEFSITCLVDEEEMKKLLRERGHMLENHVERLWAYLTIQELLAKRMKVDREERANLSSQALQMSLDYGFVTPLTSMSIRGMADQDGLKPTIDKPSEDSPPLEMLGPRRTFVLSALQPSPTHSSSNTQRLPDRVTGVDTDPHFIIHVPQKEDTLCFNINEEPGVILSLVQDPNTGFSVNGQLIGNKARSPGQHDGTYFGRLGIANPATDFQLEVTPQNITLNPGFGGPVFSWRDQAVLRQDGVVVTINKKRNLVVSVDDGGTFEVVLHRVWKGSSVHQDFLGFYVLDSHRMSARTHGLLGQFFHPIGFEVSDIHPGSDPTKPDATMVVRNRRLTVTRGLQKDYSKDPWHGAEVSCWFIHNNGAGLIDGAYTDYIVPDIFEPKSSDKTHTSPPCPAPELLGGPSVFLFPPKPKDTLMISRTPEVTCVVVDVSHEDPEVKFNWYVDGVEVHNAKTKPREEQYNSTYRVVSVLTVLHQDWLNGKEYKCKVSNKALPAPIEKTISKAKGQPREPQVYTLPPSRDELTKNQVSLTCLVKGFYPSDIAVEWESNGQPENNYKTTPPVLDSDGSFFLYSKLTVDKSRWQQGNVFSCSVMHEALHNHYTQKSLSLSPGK

Row | Kd | koff | kon | Binder
1 | 0.133 nM | 4.45e-05 s⁻¹ | 334000 M⁻¹ s⁻¹ | monoclonal antibody 9E1 against ITIH1 (antibody, V domains shown, Mouse (BALB/c) hybridoma monoclonal antibody made by AbClon Inc; also called antibody clone 9E1; 9E1 clonal antibody) VH: EVQLQQSGTVLARPGASVKMSCRASGYSFTSYWMHWVKQRPGQGLEWIGSIYPGNTDTNYNQKFKGKAKLTAVTSASTAYMELSSLTNEDSAVYYCTRYGTSEGFAYWGQGTLVTVSA VL: DIVMTQSPASLAVSLGQRATISCRASQSVSTSSYSYMHWYQQKPGQPPKLLIKYASNLESGVPARFSGSGSGTDFTLNIHPVEEEDSATYYCQHSWEIPPTFGGGTKLEIK
2 | 0.243 nM | 7.05e-05 s⁻¹ | 291000 M⁻¹ s⁻¹ | monoclonal antibody 5D6 against ITIH1 (antibody, V domains shown, Mouse (BALB/c) hybridoma monoclonal antibody made by AbClon Inc; also called antibody clone 5D6; 5D6 clonal antibody) VH: EVQLQQSGAELVKPGTSVKMSCKASGYTFTSYWMHWVRQRPGQGLEWIGDIYPGTDSTNYNEKFKSKATLTVDTSSSTAYMQLSSLTSEDSAVYYCSRSGDYYDYWGQGTTVTVSS VL: DIVLTQSPASLAVSLGQRATISCRASQSVSTSSYSYMHWYQQKPGQPPKLLIKYASNLESGVPARFSGSGSGTDFTLNIHPVEEEDTATYYCQHSWEIPWTFGGGTKLEIK
